Here are results for 1 substance from patent US20200017549A1, “NOVEL a4B7 PEPTIDE ANTAGONISTS” (Protagonist Therapeutics, Inc., priority 2013, published 2020).

In this assay the target is T1, recombinant human integrin α4β7 (Homo sapiens, UniProt P13612+P26010).
T1 construct: purchased R&D Systems 5397-A30
T1 sequence (P13612 34-970 limits assumed): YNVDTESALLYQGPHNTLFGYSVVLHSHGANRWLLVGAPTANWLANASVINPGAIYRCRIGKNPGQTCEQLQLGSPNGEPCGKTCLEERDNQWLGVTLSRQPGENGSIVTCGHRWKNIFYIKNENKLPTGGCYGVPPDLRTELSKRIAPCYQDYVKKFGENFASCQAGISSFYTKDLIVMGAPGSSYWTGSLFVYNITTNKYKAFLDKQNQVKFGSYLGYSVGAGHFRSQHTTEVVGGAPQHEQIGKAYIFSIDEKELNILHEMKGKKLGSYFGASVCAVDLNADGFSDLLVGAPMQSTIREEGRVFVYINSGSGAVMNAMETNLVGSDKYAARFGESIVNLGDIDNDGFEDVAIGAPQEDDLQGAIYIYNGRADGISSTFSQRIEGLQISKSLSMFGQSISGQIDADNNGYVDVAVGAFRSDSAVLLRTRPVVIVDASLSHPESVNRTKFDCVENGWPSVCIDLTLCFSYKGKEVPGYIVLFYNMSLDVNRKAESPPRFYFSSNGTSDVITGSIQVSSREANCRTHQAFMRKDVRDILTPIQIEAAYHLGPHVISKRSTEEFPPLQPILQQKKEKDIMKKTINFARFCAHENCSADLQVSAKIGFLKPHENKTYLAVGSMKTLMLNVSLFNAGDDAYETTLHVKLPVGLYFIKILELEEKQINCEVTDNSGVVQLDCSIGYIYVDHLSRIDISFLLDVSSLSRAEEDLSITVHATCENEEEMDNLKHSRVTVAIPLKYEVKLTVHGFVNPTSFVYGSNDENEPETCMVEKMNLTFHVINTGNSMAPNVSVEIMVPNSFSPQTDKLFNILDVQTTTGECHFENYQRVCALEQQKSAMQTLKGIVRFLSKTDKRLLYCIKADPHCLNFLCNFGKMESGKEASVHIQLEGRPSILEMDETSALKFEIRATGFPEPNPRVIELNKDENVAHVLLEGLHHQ
T1 sequence (P26010 20-723 limits assumed): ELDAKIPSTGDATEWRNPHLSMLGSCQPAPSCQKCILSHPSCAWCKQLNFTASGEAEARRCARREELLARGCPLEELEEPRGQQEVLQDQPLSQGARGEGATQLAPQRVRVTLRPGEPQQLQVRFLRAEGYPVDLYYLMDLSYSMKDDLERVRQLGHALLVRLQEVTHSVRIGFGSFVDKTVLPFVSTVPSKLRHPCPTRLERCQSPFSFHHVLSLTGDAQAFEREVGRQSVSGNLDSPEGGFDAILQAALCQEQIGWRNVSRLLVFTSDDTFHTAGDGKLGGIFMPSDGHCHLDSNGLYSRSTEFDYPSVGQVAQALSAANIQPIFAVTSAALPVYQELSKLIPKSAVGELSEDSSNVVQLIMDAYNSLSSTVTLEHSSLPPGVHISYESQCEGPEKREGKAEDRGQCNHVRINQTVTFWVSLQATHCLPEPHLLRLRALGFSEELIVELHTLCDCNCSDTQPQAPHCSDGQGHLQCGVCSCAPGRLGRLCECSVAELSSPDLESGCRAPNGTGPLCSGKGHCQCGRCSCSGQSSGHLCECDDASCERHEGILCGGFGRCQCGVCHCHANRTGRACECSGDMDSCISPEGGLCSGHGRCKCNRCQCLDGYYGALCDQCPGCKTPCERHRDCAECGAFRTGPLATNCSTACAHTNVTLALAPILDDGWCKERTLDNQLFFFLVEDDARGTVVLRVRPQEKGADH
The assay is described as follows: α4β7-MAdCAM Competition ELISA. The format is binding. The note with it: N-Me-Arg substituted, as compared to SEQ ID NO:39. The procedure: α4β7-MAdCAM Competition ELISA
A nickel coated plate (Pierce # 15442) was coated with recombinant human integrin α4β7 (R&D Systems #5397-A30) at 800 ng/well and incubated at room temperature with shaking for 1 hr. The solution was then remove by shaking and blocked with assay buffer (50 mM Tris-HCl pH7.6, 150 mM NaCl, 1 mM MnCl2, 0.05% Tween-20 and 0.5% BSA) at 250 ul/well. The plate was then incubated at room temperature for 1 hr. Each well was washed 3 times with wash buffer (50 mM Tris-HCl pH7.6, 100mM NaCl, 1 mM MnCl2, 0.05% Tween-20). To each well was added 25 ul of a serial dilution (3-fold dilutions in assay buffer) of peptides starting at 20 μM. 25 ul of recombinant human MAdCAM-1 (R&D Systems #6056-MC) was then added to each well at a fixed concentration 20 nM. The final starting peptide concentration was 10 μM, and the final MAdCAM-1 concentration was 10 nM. The plates were then incubated at room temperature for 1 hr to reach binding equilibrium. The wells were then washed three times with wash buffer. 50 ul of mouse anti-human IgG1-HRP (Invitrogen # A10648) diluted in 1:2000 in assay buffer was then added to each well. The wells were incubated at room temperature for 45 min with shaking. The wells were then washed 3 times with wash buffer. […] The reaction was stopped with 2N H2SO4 and absorbance was read at 450 nm.
A general note: In an ELISA, binding on a coated surface is turned into a signal by an enzyme label.

Bridge positions count the residues as written; N and C are the ends. Square brackets hold non-standard residues; d marks the D form. Ends that are not written are not given here. NMeR = CN[C@@H](CCCNC(=N)N)C(=O)O

“SEQ ID NO: 48: integrin antagonist peptide substituted with N-Me-Arg (C[NMeR]SDTLCK; disulfide 1-7)”: the “potency for α4β7 in ELISA” value is reported as “increased potency”.
